B3: VEGF-B (ligand, UniProt P49765-2 22-188, looked up)
chain: PVSQPDAPGHQRKVVSWIDVYTRATCQPREVVVPLTVELMGTVAKQLVPSCVTVQRCGGCCPDDGLECVPTGQHQVRMQILMIRYPSSQLGEMSLEEHSQCECRPKKKDSAVKPDSPRPLCPRCTQHHQRPDPRTCRCRCRRRSFLRCQGRGLELNPDTCRCRKLRR

Legend:
nrgbx [1] = target: T1, nrgbx (UniProt Q02297-6 2-246, limits assumed); test: binding test, fragment as ligand, growth factor in 0.65 M NaCl
T1 construct: also called neuregulin
T1 sequence (looked up): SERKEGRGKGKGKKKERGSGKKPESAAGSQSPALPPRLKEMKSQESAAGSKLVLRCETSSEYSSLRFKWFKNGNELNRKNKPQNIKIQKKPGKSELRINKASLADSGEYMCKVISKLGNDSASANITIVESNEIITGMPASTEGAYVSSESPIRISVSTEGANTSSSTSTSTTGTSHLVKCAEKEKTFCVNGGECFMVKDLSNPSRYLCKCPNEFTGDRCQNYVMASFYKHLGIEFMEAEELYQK

bFGF [2] = target: T2, bFGF (UniProt P09038 143-288, limits assumed); test: as above
T2 construct: also called basic fibroblast growth factor

VEGF-B = target: B3; test: as above
PDGF AB = target: T3, PDGF AB (UniProt P04085 87-211; P01127 82-190, limits assumed); test: as above
T3 construct: Heterodimer by its name

IGF-1 [3] = target: T4, IGF-1 (UniProt P05019 49-118); test: cell-based or functional assay
nrgbx [4] = target: T1, nrgbx; test: cell-based or functional assay
IGF-1 [5] = target: T4, IGF-1; test: Biacore SPR; experiment 4-79
Procedure: (§1) Biacore binding was performed at David Myszka's laboratory at the University of Utah or at the Genomic Research Center at Academia Sinica. Surfaces of binding protein chimera were made via chemical immobilization on a CM4 chip using standard amine coupling chemistry. […] Excess surface carboxyl activated sites on all four flow cells was blocked using the doubly positively charged species ethylenediamine. Binding experiments (but not immobilizations) in HBS-P (10 mM HEPES pH 7.4, 150 mM NaCl, 0.05% P20), The HBS-P was supplemented with BSA at 0.2 mg/mL, or HBS-P was supplemented with 500 mM NaCl (650 mM NaCl, final concentration). Analytes were also reconstituted in the corresponding buffer. All experiments were performed at 25° C. 1/150 dilutions of phosphoric acid were used to regenerate IGFBP3-Fc surfaces and a sequence of 3 M MgCl₂ followed by 5 M GuCl was used to regenerate surfaces immobilized with growth factor. Dissociation constants reported below used immobilized binding protein unless noted. Differences between binding constants may be expected between growth factor immobilization and chimera immobilization.

bFGF [6] = target: T2, bFGF; test: Biacore SPR, immobilised bFGF; experiment 4-79
Procedure: as §1

IGF-1 [7] = target: T4, IGF-1; test: biotinylated IGF-1 ELISA on Fc-captured chimera, 4 C PBS control (the reference); experiment 4-81
Procedure: (§2) Plates were coated with goat anti-human Fc antibody, blocked and then incubated with chimera as in the Fc ELISA. Biotinylated IGF-1 (GroPep) or VEGF-Biotin (R&D Systems VEGF biotinylated with sulfo-NHS-LC-biotin as per instructions (Pierce) was added for 2 hours followed by streptavidin-HRP (Jackson Immunoresearch) for 30 minutes. Chromogenic development with tetramethyl benzidine was performed as described above.
(§3) To test the stability of the present chimeras, some purified chimeras (see, Table 4) were incubated with PBS or a conditioned medium from the MCF-7 cell line overnight at 37° C. and PBS overnight at 4° C. The IGF-1 binding and VEGF binding were measured using the biotinylated IGF-1 and VEGF.

IGF-1 [8] = target: T4, IGF-1; test: biotinylated IGF-1 ELISA on Fc-captured chimera, after overnight in PBS at 37 C, against the 4 C PBS control; experiment 4-81
Procedure: as §2, §3

IGF-1 [9] = target: T4, IGF-1; test: biotinylated IGF-1 ELISA on Fc-captured chimera, after overnight in MCF-7 conditioned medium at 37 C, against the 4 C PBS control; experiment 4-81
Procedure: as §2, §3

wild-type IGFBP3 = target: T5, wild-type IGFBP3 (human, UniProt P17936 28-291); test: summary of the foregoing examples; method not given
T5 construct: also called human IGFBP3

IGF-1 [10] = target: T4, IGF-1; test: biotinylated IGF-1 ELISA on Fc-captured chimera, 4 C PBS control (the reference); experiment 3-192
Procedure: as §2, §3

IGF-1 [11] = target: T4, IGF-1; test: biotinylated IGF-1 ELISA on Fc-captured chimera, after overnight in PBS at 37 C, against the 4 C PBS control; experiment 3-192
Procedure: as §2, §3

IGF-1 [12] = target: T4, IGF-1; test: biotinylated IGF-1 ELISA on Fc-captured chimera, after overnight in MCF-7 conditioned medium at 37 C, against the 4 C PBS control; experiment 3-192
Procedure: as §2, §3

IGF-1 [13] = target: T4, IGF-1; test: binding test, fragment as ligand, growth factor in 0.65 M NaCl
IGF-2 = IGF-2 (UniProt P01344 25-91); test: as above
IGF-2, sequence (P01344 25-91 limits assumed): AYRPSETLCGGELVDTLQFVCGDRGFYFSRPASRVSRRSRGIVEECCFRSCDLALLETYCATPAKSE

T3 sequence (P01127 82-190 limits assumed, chain 2 of 2, other chains not shown): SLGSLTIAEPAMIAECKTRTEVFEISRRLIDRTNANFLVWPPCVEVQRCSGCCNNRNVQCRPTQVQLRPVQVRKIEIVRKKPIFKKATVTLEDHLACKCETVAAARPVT
T4 sequence (P05019 49-118 limits assumed): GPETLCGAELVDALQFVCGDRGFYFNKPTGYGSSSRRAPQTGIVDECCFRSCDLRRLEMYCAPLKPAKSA
T2 sequence (P09038 143-288 limits assumed): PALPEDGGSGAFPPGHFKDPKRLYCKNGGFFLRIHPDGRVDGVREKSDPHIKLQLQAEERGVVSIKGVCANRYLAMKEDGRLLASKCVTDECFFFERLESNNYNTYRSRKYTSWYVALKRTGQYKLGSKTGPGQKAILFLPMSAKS

B1: 4382 (other)
chain: GASSAVNASAVSRLRAYLLPAPPAPGNASESEEDRSAGSVESPSVSSTHRVSDPKFHPLHSKIIIIKKGHAKDSQRYKVDYESQSTDTQNFSSESKREVECPPCPAPPVAGPSVFLFPPKPKDQLMISRTPEVTCVVVDVSHEDPEVKFNWYVDGVEVHNAKTKPREEQYNSTYRVVSVLTVLHQDWLNGKEYKCKVSNKGLPSSIEKTISKAKGQPREPQVYTLPPSREEMTKNQVSLTCLVKGFYPSDIAVEWESNGQPENNYKTTPPVLDSDGSFFLYSKLTVDKSRWQQGNVFSCSVMHEGLHNHYTQKSLSLSPGK
notes: Fragment of BP3; also called ligand 4382; linker region alone
binding result (nrgbx [1]): no binding
binding result (bFGF [2]): no binding
binding result (VEGF-B): no binding
binding result (PDGF AB): no binding

B2: IGFBP3-Fc-3 (Fc fusion)
chain: GASSAGLGPVVRCEPCDARALAQCAPPPAVCAELVREPGCGCCLTCALSEGQPCGIYTERCGSGLRCQPSPDEARPLQALLDGRGLCVNASAVSRPAPPAPGNASESEEDRSAGSVESPSVSSTHRVSDPKFHPKGHAKVDYESQSTDTQNFSSESKRETEYGPCRREMEDTLNHLKFLNVLSPRGVHIPNCDKKGFYKKKQCRPSKGRKRGFCWCVDKYGQPLPGYTTKGKEDVHCYSMQSKVECPPCPAPPVAGPSVFLFPPKPKDQLMISRTPEVTCVVVDVSHEDPEVKFNWYVDGVEVHNAKTKPREEQYNSTYRVVSVLTVLHQDWLNGKEYKCKVSNKGLPSSIEKTISKAKGQPREPQVYTLPPSREEMTKNQVSLTCLVKGFYPSDIAVEWESNGQPENNYKTTPPVLDSDGSFFLYSKLTVDKSRWQQGNVFSCSVMHEGLHNHYTQKSLSLSPGK
notes: IGFBP3 with IGFBP3 linker deletion 3, fused to Fc; dimeric; also called 3(del3)3; 3(del3)3Fc
EC50 in inhibiting IGF-1 induced proliferation of hep3B cells (IGF-1 [3]): 21 nM
IC50 in inhibiting neuregulin-induced proliferation (nrgbx [4]): 80 nM
Kd (IGF-1 [5]): 0.371 nM
Kd (bFGF [6]): 3.44 nM
IGF-1 binding remaining over controls (IGF-1 [7]): 100%
IGF-1 binding remaining over controls (IGF-1 [8]): 84%
IGF-1 binding remaining over controls (IGF-1 [9]): 49%

B3
binding result (wild-type IGFBP3): binds

B4: IGFBP3-Fc-2 (Fc fusion)
chain: GASSAGLGPVVRCEPCDARALAQCAPPPAVCAELVREPGCGCCLTCALSEGQPCGIYTERCGSGLRCQPSPDEARPLQALLDGRGLCVNASAVSRPAPPAPGNASESEEDRSAGSVESPSVSSTHRVSDPKFHPKGHAKDSQRYKVDYESQSTDTQNFSSESKRETEYGPCRREMEDTLNHLKFLNVLSPRGVHIPNCDKKGFYKKKQCRPSKGRKRGFCWCVDKYGQPLPGYTTKGKEDVHCYSMQSKVECPPCPAPPVAGPSVFLFPPKPKDQLMISRTPEVTCVVVDVSHEDPEVKFNWYVDGVEVHNAKTKPREEQYNSTYRVVSVLTVLHQDWLNGKEYKCKVSNKGLPSSIEKTISKAKGQPREPQVYTLPPSREEMTKNQVSLTCLVKGFYPSDIAVEWESNGQPENNYKTTPPVLDSDGSFFLYSKLTVDKSRWQQGNVFSCSVMHEGLHNHYTQKSLSLSPGK
notes: IGFBP3 with IGFBP3 linker deletion 2, fused to Fc; dimeric; also called 3(del2)3; 3(del2)3Fc
Kd (IGF-1 [5]): 0.32 nM
Kd (bFGF [6]): 4.32 nM
IGF-1 binding remaining over controls (IGF-1 [7]): 100%
IGF-1 binding remaining over controls (IGF-1 [8]): 72%
IGF-1 binding remaining over controls (IGF-1 [9]): 43%

B5: IGFBP3-GS16-VEGF-Fc (Fc fusion)
chain: GASSAGLGPVVRCEPCDARALAQCAPPPAVCAELVREPGCGCCLTCALSEGQPCGIYTERCGSGLRCQPSPDEARPLQALLDGRGLCVNASAVSKGHAKDSQRYKVDYESQSTDTQNFSSESKRETEYGPCRREMEDTLNHLKFLNVLSPRGVHIPNCDKKGFYKKKQCRPSKGRKRGFCWCVDKYGQPLPGYTTKGKEDVHCYSMQSKGGGGSGGGGSGGGGSGIYIFISDTGRPFVEMYSEIPEIIHMTEGRELVIPCRVTSPNITVTLKKFPLDTLIPDGKRIIWDSRKGFIISNATYKEIGLLTCEATVNGHLYKTNYLTHRQGYRIYDVVLSPSHGIELSVGEKLVLNCTARTELNVGIDFNWEYPSSKHQHKKLVNRDLKTQSGSEMKKFLSTLTIDGVTRSDQGLYTCAASSGLMTKKNSTFVRVHEKVECPPCPAPPVAGPSVFLFPPKPKDQLMISRTPEVTCVVVDVSHEDPEVKFNWYVDGVEVHNAKTKPREEQYNSTYRVVSVLTVLHQDWLNGKEYKCKVSNKGLPSSIEKTISKAKGQPREPQVYTLPPSREEMTKNQVSLTCLVKGFYPSDIAVEWESNGQPENNYKTTPPVLDSDGSFFLYSKLTVDKSRWQQGNVFSCSVMHEGLHNHYTQKSLSLSPGK
notes: IGFBP3 with linker deletion 1 - GS 16 linker - v1v2 - Fc; dimeric; also called Chimera B; 3-t3-3-GS16-V1V2
IGF-1 binding remaining over controls (IGF-1 [10]): 100%
IGF-1 binding remaining over controls (IGF-1 [11]): 167%
IGF-1 binding remaining over controls (IGF-1 [12]): 82%

B6: 4142 (other)
chain: GASSAGLGPVVRCEPCDARALAQCAPPPAVCAELVREPGCGCCLTCALSEGQPCGIYTERCGSGLRCQPSPDEARPLQALLDGRGLCVNASAVSVECPPCPAPPVAGPSVFLFPPKPKDQLMISRTPEVTCVVVDVSHEDPEVKFNWYVDGVEVHNAKTKPREEQYNSTYRVVSVLTVLHQDWLNGKEYKCKVSNKGLPSSIEKTISKAKGQPREPQVYTLPPSREEMTKNQVSLTCLVKGFYPSDIAVEWESNGQPENNYKTTPPVLDSDGSFFLYSKLTVDKSRWQQGNVFSCSVMHEGLHNHYTQKSLSLSPGK
notes: Fragment of BP3; also called ligand 4142; N-terminus only
binding result (IGF-1 [13]): binds
binding result (IGF-2): binds
binding result (nrgbx [1]): no binding
binding result (bFGF [2]): no binding
binding result (VEGF-B): no binding
binding result (PDGF AB): no binding

B7: Rantes (ligand, UniProt P13501 24-91, looked up)
chain: SPYSSDTTPCCFAYIARPLPRAHIKEYFYTSGKCSNPAVVFVTRKNRQVCANPEKKWVREYINSLEMS
notes: The excerpts show no construct or source
binding result (wild-type IGFBP3): binds

B8: 4141 (other)
chain: GASSAGLGPVVRCEPCDARALAQCAPPPAVCAELVREPGCGCCLTCALSEGQPCGIYTERCGSGLRCQPSPDEARPLQALLDGRGLCVNASAVSKGHAKDSQRYKVDYESQSTDTQNFSSESKRETEYVECPPCPAPPVAGPSVFLFPPKPKDQLMISRTPEVTCVVVDVSHEDPEVKFNWYVDGVEVHNAKTKPREEQYNSTYRVVSVLTVLHQDWLNGKEYKCKVSNKGLPSSIEKTISKAKGQPREPQVYTLPPSREEMTKNQVSLTCLVKGFYPSDIAVEWESNGQPENNYKTTPPVLDSDGSFFLYSKLTVDKSRWQQGNVFSCSVMHEGLHNHYTQKSLSLSPGK
notes: Fragment of BP3; also called N-terminus plus partial linker
binding result (IGF-1 [13]): binds
binding result (IGF-2): binds
binding result (bFGF [2]): binds
binding result (VEGF-B): binds
binding result (PDGF AB): binds
